We go through seven substances from patent US20220096608.

Some results are limits rather than exact numbers.

Sequence of Mono-PEGylated Micro-plasmin variant (20 kDa PEG) E85C Catalytic Domain (SEQ ID NO. 7) (chain, as listed by the source E85C): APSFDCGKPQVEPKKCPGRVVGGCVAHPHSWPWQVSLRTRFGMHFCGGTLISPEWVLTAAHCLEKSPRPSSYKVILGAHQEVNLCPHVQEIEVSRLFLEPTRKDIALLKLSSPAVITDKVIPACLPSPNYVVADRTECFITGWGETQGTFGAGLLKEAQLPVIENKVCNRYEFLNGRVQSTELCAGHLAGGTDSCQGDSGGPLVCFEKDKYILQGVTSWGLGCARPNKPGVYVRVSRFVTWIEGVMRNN
Sequence of Mono-PEGylated Micro-plasmin variant (20 kDa PEG) V88C Catalytic Domain (SEQ ID NO. 10) (chain, as listed by the source V88C): as the sequence (chain, as listed by the source E85C) above, with C85E, V88C counted along it
Sequence of Mono-PEGylated Micro-plasmin variant (20 kDa PEG) P86C Catalytic Domain (SEQ ID NO. 8) (chain, as listed by the source P86C): as the sequence (chain, as listed by the source E85C) above, with C85E, P86C counted along it
Sequence of Mono-PEGylated Micro-plasmin variant (40 kDa PEG) E85C Catalytic Domain (SEQ ID NO. 7) (chain, as listed by the source E85C): as the sequence (chain, as listed by the source E85C) above
Sequence of Mono-PEGylated Micro-plasmin variant (40 kDa PEG) V88C Catalytic Domain (SEQ ID NO. 10) (chain, as listed by the source V88C): as the sequence (chain, as listed by the source E85C) above, with C85E, V88C counted along it
Sequence of Bi-PEGylated Micro-plasmin variant (20 kDa-20 kDa PEG) E85C-H87C Catalytic Domain (SEQ ID NO. 11) (chain, as listed by the source E85C H87C): as the sequence (chain, as listed by the source E85C) above, with H87C counted along it
Sequence of Mono-PEGylated Micro-plasmin variant (40 kDa PEG) P86C Catalytic Domain (SEQ ID NO. 8) (chain, as listed by the source P86C): as the sequence (chain, as listed by the source E85C) above, with C85E, P86C counted along it

In the series the target is α2-antiplasmin (UniProt P08697).
Sequence of α2-antiplasmin (P08697 40-491): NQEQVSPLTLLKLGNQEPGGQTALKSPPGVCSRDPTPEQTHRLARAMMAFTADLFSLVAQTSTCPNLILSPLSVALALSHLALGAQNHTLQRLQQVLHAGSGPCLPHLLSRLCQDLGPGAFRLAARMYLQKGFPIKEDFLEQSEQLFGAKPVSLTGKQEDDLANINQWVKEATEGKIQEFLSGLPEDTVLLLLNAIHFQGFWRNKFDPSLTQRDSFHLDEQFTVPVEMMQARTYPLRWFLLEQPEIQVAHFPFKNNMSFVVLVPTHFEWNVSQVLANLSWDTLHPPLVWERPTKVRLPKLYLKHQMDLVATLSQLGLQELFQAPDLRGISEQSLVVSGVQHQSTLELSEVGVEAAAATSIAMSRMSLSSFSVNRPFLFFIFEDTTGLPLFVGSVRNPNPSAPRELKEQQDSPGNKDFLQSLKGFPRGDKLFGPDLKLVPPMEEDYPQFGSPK
For “Mono-PEGylated Micro-plasmin variant (40 kDa PEG) E85C Catalytic Domain (SEQ ID NO. 7)”, the “In vitro Half-life (of inactivation by α2-antiplasmin)” value (“In vitro Half-life” for short) is over 7 min.

Consider “Mono-PEGylated Micro-plasmin variant (40 kDa PEG) P86C Catalytic Domain (SEQ ID NO. 8)”, for which the “In vitro Half-life” value is over 7 min.

Take “Mono-PEGylated Micro-plasmin variant (20 kDa PEG) P86C Catalytic Domain (SEQ ID NO. 8)”: the “In vitro Half-life” value lay in the range of 6 to 7 min.

For “Bi-PEGylated Micro-plasmin variant (20 kDa-20 kDa PEG) E85C-H87C Catalytic Domain (SEQ ID NO. 11)”, the “In vitro Half-life” value is over 10 min.

In the case of “Mono-PEGylated Micro-plasmin variant (40 kDa PEG) V88C Catalytic Domain (SEQ ID NO. 10)”, the “In vitro Half-life” value is over 7 min.

“Mono-PEGylated Micro-plasmin variant (20 kDa PEG) V88C Catalytic Domain (SEQ ID NO. 10)”: the “In vitro Half-life” value fell in the range of 6 to 7 min.

Regarding “Mono-PEGylated Micro-plasmin variant (20 kDa PEG) E85C Catalytic Domain (SEQ ID NO. 7)”, the “In vitro Half-life” value is 6 to 7 min.
